Assay results as given in patent publication US20030180744, “High affinity oligonucleotide ligands to growth factors” (GILEAD SCIENCES, INC., published 2003).

How the values were obtained:
TGFβ1 [1] = biological target: T1, TGFβ1 (Homo sapiens, UniProt P01137 P01137:279-390); test: filter; not inhibitory; conditions: tags: Genentech; biotinylated version used in bead assay; chain copies: 2
KGF (hKGF) [2] = biological target: T2, KGF (hKGF) (Homo sapiens, UniProt P21781 P21781:32-194); test: filter; similar to random RNA; conditions: tags: Upstate Biotechnology; label: 32P
T2 sequence: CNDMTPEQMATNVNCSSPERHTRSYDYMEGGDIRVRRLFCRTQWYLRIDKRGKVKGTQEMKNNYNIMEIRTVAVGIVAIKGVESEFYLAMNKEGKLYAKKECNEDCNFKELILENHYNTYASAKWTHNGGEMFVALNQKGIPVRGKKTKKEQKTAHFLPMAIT

TGFβ1 [3] = biological target: T1, TGFβ1; test: filter; boundary experiment, each terminus separately; conditions: tags: Genentech or R&D Systems; chain copies: 2
TGFβ1 [4] = biological target: T1, TGFβ1; test: filter; not inhibitory in cell assay; conditions: tags: Genentech; biotinylated version used in bead assay; chain copies: 2
PDGF-BB = PDGF-BB (Homo sapiens, UniProt P01127 P01127:82-190); test: competition; PDGF alpha-receptor PAE cells, 4 C; conditions: tags: R&D Systems, E. coli; chain copies: B chain dimer; three-way helix junction
Protocol: The binding of ¹²⁵I-PDGF-AA and ¹²⁵I-PDGF-BB to porcine aortic endothelial (PAE) cells transfected with PDGF α- or β-receptors were performed as described (Heldin et al., (1988) EMBO J. 7:1387-1394). Different concentrations of DNA ligands were added to the cell culture (1.5 cm²) in 0.2 ml of phosphate buffered saline supplemented with 1 mg bovine serum albumin per ml together with ¹²⁵I-PDGF-AA (2 ng, 100,000 cpm) or ¹²⁵I-PDGF-BB (2 ng, 100,000 cpm). After incubation at 4° C. for 90 min, the cell cultures were washed and cell associated radioactivity determined in a γ-counter (Heldin et al., (1988) EMBO J. 7:1387-1394).
In order to determine whether the DNA ligands to PDGF were able to inhibit the effects of PDGF isoforms on cultured cells, the effects on binding of ¹²⁵I-labeled PDGF isoforms to PDGF α- and β-receptors stably expressed in porcine aortic endothelial (PAE) cells by transfection was determined.

KGF (hKGF) [5] = biological target: T2, KGF (hKGF); test: filter; high +, low +; conditions: tags: Upstate Biotechnology
Protocol: (§1) In an effort to identify shorter KGF ligands that retained binding, the binding activity of various deletions of the shortest truncate of ligand 14F, namely 14F3′T were tested. Deletions were tested in all the structural elements of the proposed pseudoknot structure. RNA transcripts containing 2′F pyrimidines and 2′OH purines were obtained by in vitro transcription using synthetic DNA templates. The activity of each ligand is shown by scoring for both the high (H) and low (L) affinity component of the 14F3′T binding curve with +(active) or −(not active). Truncates T35 and T36 represent two complementary halves of 14F3′T molecule and were additionally tested as an equimolar mixture. The structural elements of the proposed pseudoknot structure are separated by (1) and are indicated by symbols S1 (stem 1), S2 (stem 2), L1 (loop 1) and L3 (loop 3). The proposed pseudoknot structure for 14F3′T is a non-H-type pseudoknot and lacks L2 (loop 2). The complementary sequences forming S1 (S1 and S1′) and S2 (S2 and S2′) are marked by single and double underlines respectfully. In the tabulated sequences, deleted bases were replaced with periods (.). […] Deletions in loop 3 (L3), however, were tolerated as long as one copy of the RRYY box remained intact. The shortest ligand that retained activity is T22 which is a 43-mer. In trying to obtain shorter ligands by truncating L3 further a mutant version of T22 (designated T22mu) was used where the last GC base pair of S1 was eliminated by a G to U mutation at position 6. The reasoning for this mutation was to enhance the flexibility of the double stranded region of this ligand by allowing an unpaired base between S1 and S2.

KGF (hKGF) [6] = biological target: T2, KGF (hKGF); test: filter; 43-mer, shortest active truncate; retains high and low affinity components; conditions: tags: Upstate Biotechnology; pseudoknot (predicted)
Protocol: as §1, with “In trying to obtain shorter ligands by truncating L3 further a mutant version of T22 (designated T22mu) was used where the last GC base pair of S1 was eliminated by a G to U mutation at position 6. The reasoning for this mutation was to enhance the flexibility of the double stranded region of this ligand by allowing an unpaired base between S1 and S2.” left out

TGFβ1 [7] = biological target: T1, TGFβ1; test: filter; 37 C, KRH buffer; conditions: tags: Genentech; biotinylated version used in bead assay; chain copies: 2
KGF (hKGF) [8] = biological target: T2, KGF (hKGF); test: filter; biphasic, high affinity 21%; Kd2 2.10 nM; conditions: tags: Upstate Biotechnology; label: 32P

T1 sequence (P01137 279-390, one chain of several): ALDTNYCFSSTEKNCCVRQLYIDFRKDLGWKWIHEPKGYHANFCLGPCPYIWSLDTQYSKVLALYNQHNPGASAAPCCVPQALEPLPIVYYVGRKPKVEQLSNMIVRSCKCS
PDGF-BB, sequence (P01127 82-190, one chain of several): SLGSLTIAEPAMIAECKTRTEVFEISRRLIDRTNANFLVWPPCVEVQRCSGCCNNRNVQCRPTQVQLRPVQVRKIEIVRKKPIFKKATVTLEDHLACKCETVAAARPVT

B1: lib3-45 (ssRNA)
RNA: GGGGGAGAACGCGGAUCCGGAAGUCUGGUCUUUGGGGAGUCCGCAUGGCCCUGGCGAAAGCUUCGCUCUAGAUCUCCCUUUAGUGAGGGUUA
modifications: 2'-NH2 pyrimidines
**Q.** How did the Kd (TGFβ1 [1]) turn out when B1 was run?
**A.** 1.9 nM

B2: 57N (ssRNA)
RNA: GGGAGGACGAUGCGGUCGUGGGGUGGGUGGGGGCAGCGUUGGAAUAAGUAACUGGUAACGGCUGGCCAGACGACUCGCCCGA
modifications: 2'-NH2 pyrimidines
**Q.** With B2 as the binder, how does the Kd (KGF (hKGF) [2]) read?
**A.** 35.8 nM

B3: lib9-10 (ssRNA)
RNA: GGGGGAGAACGCGGAUCCUGUCUCCACCGCCGAUACUGGGGUUCCUGGGGCCCCUCCAUGCAGGAGGGGUGGUUCGGAGAAAGCUUCGCUCUAGAUCUCCCUUUAGUGAGGGUUA
modifications: 2'-NH2 U, 2'-F C
**Q.** How did the Kd (TGFβ1 [1]) turn out when B3 was run?
**A.** 1.1 nM

**Q.** Does GCUUCCGAGUAGACAGGAGGGAGGGGUGGAUGUGGCGUCUAC (ssRNA, modified pyrimidines) [lib3-13 boundaries (38-79)] bind (TGFβ1 [3])?
**A.** binds

B4: lib5-48 (ssRNA)
RNA: GGGGGAGAACGCGGAUCCGGCAAUCCCAGGCGCAUAGCUUCCGAGUAGACAGGAGGGAGGGGUGGAUGUGGUGUACGAGGAAGCUUCGCUCUAGAUCUCCCUUUAGUGAGGGUUA
modifications: 2'-NH2 pyrimidines
**Q.** For B4, which Kd (TGFβ1 [4]) is on record?
**A.** 3.8 nM

**Q.** With TGGGAGGGCGCGTTCTTCGTGGTTACTTTTAGTCCCGT (ssDNA, 3'-3' idT) [20t] as the binder, how does the IC50 (PDGF-BB) read?
**A.** ~1 nM

**Q.** Does GGGAGGACGAUGCGGUGGUCUCCCCUAAACUUUCUCCAUCGUAUC (ssRNA, 2'-F pyrimidines) [T4] bind (KGF (hKGF) [5])?
**A.** binds

**Q.** Does GGGAGGACGAUGCGGUGGUCUCCCAAUUCUUCUCCAUCGUAUC (ssRNA, 2'-F pyrimidines) [T22] bind (KGF (hKGF) [6])?
**A.** binds

B5: lib6-30 (ssRNA)
RNA: GGGGGAGAACGCGGAUCCUGCUAGACCGAGGAUGCAAAGGGACAUGCAUUAGGGAAACCUAUUAUAAGAACGCGGUCGCAGAAGCUUCGCUCUAGAUCUCCCUUUAGUGAGGGUUA
modifications: 2'-F pyrimidines
**Q.** With B5 as the binder, how does the Kd (TGFβ1 [1]) read?
**A.** 8.8 nM

B6: 59N (ssRNA)
RNA: GGGAGGACGAUGCGGGGUGGGUGGUUACCUGUAAUUAUAUUGAUUCUGGCUUUAGCAGACGACUCGCCCGA
modifications: 2'-NH2 pyrimidines
**Q.** For B6, which Kd (KGF (hKGF) [2]) is on record?
**A.** 22 nM

**Q.** Does GGGAGGACGAUGCGGUGGUCUCCCAAUUCUAUUCUCCAUCGUAUC (ssRNA, 2'-F pyrimidines) [T5] bind (KGF (hKGF) [5])?
**A.** binds

B7: lib1-20-3-82 (ssRNA)
RNA: GGGGGAGAACGCGGAUCCUGCUAGACCGAGGAUGCAAAGGGACAUGCAUUAGGGAAACCUAUGUAUAAGAACGCGGUCGCAG
modifications: 2'-F pyrimidines
**Q.** With B7 as the binder, how does the Kd (TGFβ1 [1]) read?
**A.** 6.1 nM

B8: lib3-3 (ssRNA)
RNA: GGGGGAGAACGCGGAUCCGAGCAACCCCAGGCGCAUAGCUUCCGAGUAGACAGGAGGGAGGGGUGGAUGUGGCGUCUACUCGGUGUCGUGAAGCUUCGCUCUAGAUCUCCCUUUAGUGAGGGUUA
modifications: 2'-NH2 pyrimidines
**Q.** For B8, which Kd (TGFβ1 [7]) is on record?
**A.** 1.7 nM

B9: 50F (ssRNA)
RNA: GGGAGGACGAUGCGGUGAUCAAUCGGCGCUUUACUCUUGCGCUCACCGUGCCCCAGACGACUCGCCCGA
modifications: 2'-F pyrimidines
**Q.** For B9, which Kd (KGF (hKGF) [8]) is on record?
**A.** 0.12 nM

B10: lib7-21 (ssRNA)
RNA: GGGGGAGAACGCGGAUCCGAGCAAUCCCGGGCGCAUAGCUUCCGAGGAGACAGGCGGGAGGGGUGGAUGUGGCGUCUCGAGAAGCUUCGCUCUAGAUCUCCCUUUAGUGAGGGUUA
modifications: 2'-F U, 2'-NH2 C
**Q.** For B10, which Kd (TGFβ1 [4]) is on record?
**A.** 2.4 nM

B11: lib2-6-4 (ssRNA)
RNA: GGGGGAGAACGCGGAUCCGAGCAAUCCCAGGCGCAUAGCUUCCGAGUAGACAGGAGGGAGGGGUGGAUGUGGUGUCUCGAGAAGCUUCGCUCUAGAUCUCCCUUUAGUGAGGGUUA
modifications: 2'-NH2 pyrimidines
**Q.** For B11, which Kd (TGFβ1 [4]) is on record?
**A.** 3.1 nM

B12: lib7-43 (ssRNA)
RNA: GGGGGAGAACGCGGAUCCGAGCAAUCCCAGGCGCAUAGCUUCCGAGUAGACAGGCGGGAGGGGUGGAUGUGGCGUCUCGAGAAGCUUCGCUCUAGAUCUCCCUUUAGUGAGGGUUA
modifications: 2'-F U, 2'-NH2 C
**Q.** Which Kd (TGFβ1 [4]) does the source give for B12 here?
**A.** 3.3 nM

B13: lib4-12 boundaries (ssRNA)
RNA: GGAGAACGCGGAUCCUGAGAAGGACGUCGGGGUCAACGGGGUGAGGUGCAGCAGAAAGGGCCGGCACCA
modifications: modified pyrimidines
**Q.** Does B13 bind (TGFβ1 [3])?
**A.** binds

**Q.** How did the IC50 (PDGF-BB) turn out when TACTCAGGGCACTGCAAGCAATTGTGGTCCCAATGGGCTGAGTAT (ssDNA, 3'-3' idT) [41t] was run?
**A.** ~1 nM

B14: lib6-23 (ssRNA)
RNA: GGGGGAGAACGCGGAUCCAAGCUUCGAGUAGACAGGAGGGAGGGGUGGAUGUGGAGUCUCGAGAAGCUUCGCUCUAGAUCUCCCUUUAGUGAGGGUUA
modifications: 2'-NH2 pyrimidines
**Q.** Which Kd (TGFβ1 [4]) does the source give for B14 here?
**A.** 3.4 nM

**Q.** Does GGGAGGACGAUGCGGUGGUCUCCCAAUUCUAUCUCCAUCGUAUC (ssRNA, 2'-F pyrimidines) [T18] bind (KGF (hKGF) [5])?
**A.** binds

**Q.** Does GGGAGGACGAUGCGGUGGUCUCCCAAUUCUUUCUCCAUCGUAUC (ssRNA, 2'-F pyrimidines) [T21] bind (KGF (hKGF) [5])?
**A.** binds

B15: lib1-20-5 (ssRNA)
RNA: GGGGGAGAACGCGGAUCCAAGAAUGUUCGGCCGCACGAGGUGACAGUGGUGCGGAUACGGACCGAUUGGGUUUGCCAAGCUUCGCUCUAGAUCUCCCUUUAGUGAGGGUUA
modifications: 2'-F pyrimidines
**Q.** How did the Kd (TGFβ1 [1]) turn out when B15 was run?
**A.** 46 nM

B16: 65N (ssRNA)
RNA: GGGAGGACGAUGCGGUAACGUGGAAUAGGGUUAAACAGCUGGAAAUAACGUAGGUGGCCAGACGACUCGCCCGA
modifications: 2'-NH2 pyrimidines
**Q.** For B16, which Kd (KGF (hKGF) [2]) is on record?
**A.** 26.6 nM
